The target in experiment [1] is T1, CD3 on T cells (UniProt P07766 23-207). Nature of the experiment: cell-based or functional assay.
Experiment [2] addresses T1, CD3 on T cells. Nature of the experiment: cell-based or functional assay. The source holds these as a separate data set.
Experiment [3] deals with T1, CD3 on T cells. The experiment in a line: flow cytofluorimetry on peripheral blood T cells, EC50 from MFI, average of three determinations; h10Ta-wt, parental Fv Vk CDR1. The procedure: (§1) The antibody binding to peripheral blood T cells was determined for T cell affinity over a range of concentration as shown in FIG. 8A. MFI were plotted and affinity (EC50) was determined using GraphPad PRISM. Three independent affinity determinations and their averages were indicated. […] Both h10Ta antibodies engaged CDH17 (on DLD1) and CD3. The signaling was determined according to manufacturer's protocol, at 24 hours using an antibody concentration range as indicated and Jurkat reporter cells at 100×10³ and DLD1 cells at 30×10³ per microtiter well (96-well plate). Luciferase expression/activity was measured using a multimode plate reader. […] Controls included no antibody or a CD3, CD28, CD2 agonist (Immunocult; StemCell) to induce maximal stimulation.

Experiment [4] concerns the target T1, CD3 on T cells. Nature of the experiment: flow cytofluorimetry on peripheral blood T cells, fit of Median FI against concentration; one of three independent determinations. The method, then: as §1
Experiment [5] concerns the target T2, Fibroblast activation protein alpha (FAP) on DLD1-FAP cells (UniProt Q12884 1-760, limits assumed).
T2 sequence (looked up): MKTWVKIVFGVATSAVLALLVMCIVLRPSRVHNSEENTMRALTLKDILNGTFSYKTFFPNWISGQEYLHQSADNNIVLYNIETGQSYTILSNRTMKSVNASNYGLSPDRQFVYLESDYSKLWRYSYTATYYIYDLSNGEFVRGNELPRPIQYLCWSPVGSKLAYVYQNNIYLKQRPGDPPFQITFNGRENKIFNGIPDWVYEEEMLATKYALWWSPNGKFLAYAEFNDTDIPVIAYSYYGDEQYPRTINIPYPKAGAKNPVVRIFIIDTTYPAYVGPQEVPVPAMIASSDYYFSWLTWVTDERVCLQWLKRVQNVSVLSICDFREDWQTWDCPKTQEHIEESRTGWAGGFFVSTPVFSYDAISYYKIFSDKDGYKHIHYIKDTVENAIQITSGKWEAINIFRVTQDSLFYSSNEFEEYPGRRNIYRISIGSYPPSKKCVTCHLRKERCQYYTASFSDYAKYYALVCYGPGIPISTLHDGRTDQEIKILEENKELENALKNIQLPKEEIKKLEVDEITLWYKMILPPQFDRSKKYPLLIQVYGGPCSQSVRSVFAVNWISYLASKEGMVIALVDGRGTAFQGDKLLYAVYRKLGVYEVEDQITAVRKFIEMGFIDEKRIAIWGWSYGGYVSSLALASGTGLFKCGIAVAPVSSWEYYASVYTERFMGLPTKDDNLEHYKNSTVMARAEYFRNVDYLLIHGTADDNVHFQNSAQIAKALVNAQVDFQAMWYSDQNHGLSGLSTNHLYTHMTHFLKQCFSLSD
Nature of the experiment: cell-based or functional assay.

Experiment [6] concerns the target T1, CD3 on T cells. The experiment in a line: flow cytofluorimetry on peripheral blood T cells. The method, then:
as §1

The target of experiment [7] is T1, CD3 on T cells. The experiment in a line: flow cytofluorimetry on peripheral blood T cells, EC50 from MFI, average of three determinations; h10Ta-L4, modified CDRL1. The method, then: as §1

Where “and” joins values, the source holds several entries; their conditions need not be identical. Identical values can stand only once.

Usually EC50 stands for the concentration at which the effect is half-maximal. What is called Kd is the free concentration of one partner at which half of the binding sites on the other are occupied at equilibrium, for simple one-to-one binding.

T1 sequence (P07766 23-207): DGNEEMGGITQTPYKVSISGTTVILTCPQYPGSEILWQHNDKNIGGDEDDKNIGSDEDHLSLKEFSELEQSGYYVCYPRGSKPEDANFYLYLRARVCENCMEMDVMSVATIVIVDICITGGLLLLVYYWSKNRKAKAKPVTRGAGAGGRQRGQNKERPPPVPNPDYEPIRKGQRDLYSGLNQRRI

B1: h10Ta-wt (bispecific antibody)
light: DIQMTQSPSSLSASVGDRVTITCRASQDIRNYLNWYQQKPGKAPKLLIYYTSRLESGVPSRFSGSGSGTDYTLTISSLQPEDFATYYCQQGNTLPWTFGQGTKVEIKGAPGGGTHTCPPCPAPELLGGPSVFLFPPKPKDTLMISRTPEVTCVVVDVSQEDPEVQFNWYVDGVEVHNAKTKPREEQFNSTYRVVSVLTVLHQDWLNGKEYKCKVSNKGLPSSIEKTISKAKGQPREPQVYTLPPSREEMTKNQVSLSCAVKGFYPSDIAVEWESNGQPENNYKTTPPVLDSDGSFFLVSKLTVDKSRWQQGNVFSCSVMHEALHNHYTQKSLSLSPGK
heavy: EVQLLESGGGLVQPGGSLRLSCAASGFTFSSYAMSWVRQAPGKGLEWVAVIDSNGGSTYYPDTVKDRFTISRDNSKNTLYLQMNSLRAEDTAVYYCSSYTNLGAYWGQGTLVTVSAGGGGSGGGGSGGGGSDIQMTQSPSSLSASVGDRVTITCRASQDISGYLNWLQQKPGKAIKRLIYTTSTLDSGVPSRFSGSGSGTDFTLTISSLQPEDFATYYCLQYASSPFTFGGGTKVEIKPAGGGGGSEVQLVESGGGLVQPGGSLRLSCAASGYSFTGYTMNWVRQAPGKGLEWVALINPYKGVSTYNQKFKDRFTISVDKSKNTAYLQMNSLRAEDTAVYYCARSGYYGDSDWYFDVWGQGTLVTVSSGAPGGGTHTCPPCPAPELLGGPSVFLFPPKPKDTLMISRTPEVTCVVVDVSQEDPEVQFNWYVDGVEVHNAKTKPREEQFNSTYRVVSVLTVLHQDWLNGKEYKCKVSNKGLPSSIEKTISKAKGQPREPQVYTLPPSREEMTKNQVSLWCLVKGFYPSDIAVEWESNGQPENNYKTTPPVLDSDGSFFLYSKLTVDKSRWQQGNVFSCSVMHEALHNHYTQKSLSLSPGK
notes: also called h10Ta with the parental Fv; h10Ta (wt anti-CD3 Fv)
For the molecule B1, in the experiment with CD3 on T cells [1], the “EC50 for AGS killing in the presence of T cells, 24 hours, E:T 4” value turned out to be 0.0014 nM and the “EC50 for killing DLD1 in the presence of T cells, 24 hours, E:T 4” value is 0.0005 nM. Further, the “EC50 (read off the curve), NFAT-luciferase induction in Jurkat reporter cells with DLD1 cells” value with CD3 on T cells [2] is about 0.4 nM. Also, the EC50 in the experiment with CD3 on T cells [3] was 60 nM. For the same molecule, the Kd with CD3 on T cells [4] was 50 nM and 54 nM and 75 nM.

B2: hB2Ta (bispecific antibody)
light: DIQMTQSPSSLSASVGDRVTITCQASQDISNYLNWYQQKPGKAPKLLIYYTSRLESGVPSRFSGSGSGTDYTLTISSLQPEDFATYYCQQGNTLPWTFGQGTKVEIKGAPGGGTHTCPPCPAPELLGGPSVFLFPPKPKDTLMISRTPEVTCVVVDVSQEDPEVQFNWYVDGVEVHNAKTKPREEQFNSTYRVVSVLTVLHQDWLNGKEYKCKVSNKGLPSSIEKTISKAKGQPREPQVYTLPPSREEMTKNQVSLSCAVKGFYPSDIAVEWESNGQPENNYKTTPPVLDSDGSFFLVSKLTVDKSRWQQGNVFSCSVMHEALHNHYTQKSLSLSPGK
heavy: QVQLVQSGAEVKKPGASVKVSCKASGYSFTDYTMNWVRQAPGQGLEWMGVINPNHGISSYAQKFQGRVTMTRDTSTSTVYMELSSLRSEDTAVYYCVRRKISYDYDEGYAMDYWGQGTLVTVSSGGGGSGGGGSGGGGSDIVMTQSPDSLAVSLGERATINCKSSQNLLNSSNQKNYLAWYQQKPGQPPKLLVFFAATRESGVPDRFSGSGSGTDFTLTISSLQAEDVAVYYCQQHYSTPWTFGGGTKLEIKPAGGGGSEVQLVESGGGLVQPGGSLRLSCAASGYSFTGYTMNWVRQAPGKGLEWVALINPYKGVSTYNQKFKDRFTISVDKSKNTAYLQMNSLRAEDTAVYYCARSGYYGDSDWYFDVWGQGTLVTVSSGAPGGGTHTCPPCPAPELLGGPSVFLFPPKPKDTLMISRTPEVTCVVVDVSQEDPEVQFNWYVDGVEVHNAKTKPREEQFNSTYRVVSVLTVLHQDWLNGKEYKCKVSNKGLPSSIEKTISKAKGQPREPQVYTLPPSREEMTKNQVSLWCLVKGFYPSDIAVEWESNGQPENNYKTTPPVLDSDGSFFLYSKLTVDKSRWQQGNVFSCSVMHEALHNHYTQKSLSLSPGK
For the molecule B2, in experiment [5], the “EC50 of tumor cell cytotoxicity, DLD1-FAP cells with T cells, 24 hours, E:T 4” value came to 0.041 nM.

B3: h10Ta-L4 (bispecific antibody)
light: DIQMTQSPSSLSASVGDRVTITCQASQDISNYLNWYQQKPGKAPKLLIYYTSRLESGVPSRFSGSGSGTDYTLTISSLQPEDFATYYCQQGNTLPWTFGQGTKVEIKGAPGGGTHTCPPCPAPELLGGPSVFLFPPKPKDTLMISRTPEVTCVVVDVSQEDPEVQFNWYVDGVEVHNAKTKPREEQFNSTYRVVSVLTVLHQDWLNGKEYKCKVSNKGLPSSIEKTISKAKGQPREPQVYTLPPSREEMTKNQVSLSCAVKGFYPSDIAVEWESNGQPENNYKTTPPVLDSDGSFFLVSKLTVDKSRWQQGNVFSCSVMHEALHNHYTQKSLSLSPGK
heavy: EVQLLESGGGLVQPGGSLRLSCAASGFTFSSYAMSWVRQAPGKGLEWVAVIDSNGGSTYYPDTVKDRFTISRDNSKNTLYLQMNSLRAEDTAVYYCSSYTNLGAYWGQGTLVTVSAGGGGSGGGGSGGGGSDIQMTQSPSSLSASVGDRVTITCRASQDISGYLNWLQQKPGKAIKRLIYTTSTLDSGVPSRFSGSGSGTDFTLTISSLQPEDFATYYCLQYASSPFTFGGGTKVEIKPAGGGGGSEVQLVESGGGLVQPGGSLRLSCAASGYSFTGYTMNWVRQAPGKGLEWVALINPYKGVSTYNQKFKDRFTISVDKSKNTAYLQMNSLRAEDTAVYYCARSGYYGDSDWYFDVWGQGTLVTVSSGAPGGGTHTCPPCPAPELLGGPSVFLFPPKPKDTLMISRTPEVTCVVVDVSQEDPEVQFNWYVDGVEVHNAKTKPREEQFNSTYRVVSVLTVLHQDWLNGKEYKCKVSNKGLPSSIEKTISKAKGQPREPQVYTLPPSREEMTKNQVSLWCLVKGFYPSDIAVEWESNGQPENNYKTTPPVLDSDGSFFLYSKLTVDKSRWQQGNVFSCSVMHEALHNHYTQKSLSLSPGK
notes: also called TriAx-A harboring L4
For B3, in the experiment with CD3 on T cells [1], the “EC50 for AGS killing in the presence of T cells, 24 hours, E:T 4” value worked out at 0.002 nM; the “EC50 for killing DLD1 in the presence of T cells, 24 hours, E:T 4” value came out at 0.0004 nM; the “fold decrease in T cell signaling, NFAT luciferase Jurkat reporter cells with DLD1 cells, 24 hours” value amounted to 2 fold. Further, the “EC50 (read off the curve), NFAT-luciferase induction in Jurkat reporter cells with DLD1 cells” value in the experiment with CD3 on T cells [2] was about 0.8 nM. Further, the “fold decrease in T cell affinity relative to the parental Fv (h10Ta-wt)” value with CD3 on T cells [6] is 5 fold. Moreover, in the experiment with CD3 on T cells [7], the midpoint of the response, the EC50, lay at 320 nM. Further, the Kd with CD3 on T cells [4] was 236 nM and 358 nM and 365 nM.

The values are drawn from US20230340119A1 (ARBELE, published 2023).
